Data: publication PMC9242648

Legend:
[1] = biological target: human regulatory light chain (MYL2) (UniProt P10916); assay: Coomassie SDS-PAGE gel-based light chain loading assay; settings: read off a plot
[2] = biological target: human essential light chain (MYL3) (UniProt P08590); assay: as above; settings: read off a plot

Substance	ratio to parent [1]	ratio to parent [2]
human β-cardiac myosin 2-hep heavy chain, wild type D778V	1.3	1.1
human β-cardiac myosin 2-hep heavy chain, wild type L781P	1.2	0.99
